Values of other authors, collected in paper PMC10342495.

Molecular target: IL-18 (Homo sapiens) (UniProt Q14116)
Sequence (Q14116 37-193): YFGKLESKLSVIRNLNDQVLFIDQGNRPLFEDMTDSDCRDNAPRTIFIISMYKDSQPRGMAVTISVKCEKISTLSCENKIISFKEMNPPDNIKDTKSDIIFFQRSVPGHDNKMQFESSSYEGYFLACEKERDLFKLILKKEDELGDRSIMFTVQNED

Sequence of IL-18BP (O95998 31-194): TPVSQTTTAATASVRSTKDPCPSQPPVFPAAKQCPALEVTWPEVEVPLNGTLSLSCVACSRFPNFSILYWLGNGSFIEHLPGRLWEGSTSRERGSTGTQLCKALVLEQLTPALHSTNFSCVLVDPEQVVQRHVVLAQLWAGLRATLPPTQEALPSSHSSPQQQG

## IL-18BP (from UniProt O95998)
  Kd: 0.4 nM
